# “And” between values parts separate entries of the source, which are not always exact repeats. Equal entries are not always repeated. Where two headings read alike, the source gives them in different places. No end group written: not given here.
# Key:
# [1] = tested on: spontaneous lesions in apoE-knockout mice; assay: IP administration of modified 18A peptide to apoE-knockout mice on normal diet; type: in vivo; settings: for aortal lesions: IP administration, apoE-knockout mice
# Description: Similar experiments were completed in apoE-knockout animals. The peptide used was a modified 18A of the present invention with the sequence:
# This peptide was administered to animals on a normal diet, to determine if the intraperitoneal administration of this peptide would inhibit lesions that these animals produce spontaneously, even without high fat diet administration. The lesions in this case is different than that produced after sixteen weeks of high fat diet administration in 57BL6/J mice.
# [2] = tested on: plasma cholesterol in B16/SJL mice; assay: Effect of peptides on total cholesterol, high fat diet administered to B16/SJL mice; type: in vivo
# Description: Peptide injections (50 μg/animal/day for 16 weeks).
# [3] = tested on: diet administered atherosclerosis in peptide transgenic mice; assay: In vitro fertilized peptide-transgenic mice on high fat diet for 16 weeks (plasma peptide, cholesterol, aortic cross-section); type: in vivo; settings: transgenic IVF mice, retroorbital bleed, Western analysis; some of the mice
# Excerpt: The peptide gene was then cloned into the MunI site of the apoE-promoter that is specific for expression of the peptide/protein in the liver. SalI-Spel fragment of the apoE promoter to which the peptide gene was subcloned was microinjected into mouse oocytes to produce transgenic mice. […] Further transgenic mice were generated from these two founders and analysed for the presence of peptide gene.
# This produced a number of animals with the peptide gene present in different amounts. Western analysis using the antibody produced for the chemically synthesized peptide indicated the presence of peptide in different amounts (FIG. 4).
# The animals were then administered TeckLad diet that is known to produce foam cell lesions in 57BL6/J mice when administered for sixteen weeks. At the end of sixteenth week, mice were sacrificed, plasma was collected and the hearts were harvested. The aortal cross-sections were stained with Oil Red O that stains lipid laden fatty streaks. The plasma samples were subjected to lipoprotein analysis. The results of plasma analysis indicated clearly that the profiles were different from each other and some of the profiles looked very similar to the control mice on the normal diet, with the cholesterol values around ≤100 mg/dl.
# Blood from the in vitro fertilized animals were obtained from the retroorbital bleed and red cells were separated by centrifugation. […]
# [4] = IP administration of radiolabelled 18A-Pro-18A and human apo A-I in mice, plasma radioactivity; type: in vivo, 57BL6/J mice; settings: for amount of the injected dosage present in the blood: 4 or 5 hours following IP injection, based on specific activity; for Total plasma cpm as a percent of the injected cpm: IP, radiolabelled, 4 or 5 hours (respectively) after injection, plasma volume assumed 4.2% of body weight; for presence of the radiolabel in isolated lipoprotein fractions (FPLC): after IP injection; for form of radioactivity in the plasma (TCA precipitation and FPLC analysis): early time points (up to 5 hours)
# Description: Since the peptide administration experiments involves intraperitoneal administration of peptide, the effect of administration of radiolabelled peptide and human apo A-I was compared in mice. Briefly, approximately 200,000 cpm of either the peptide (4.4 μg) or human apo A-I (3.0 μg) were administered intraperitoneally into 57BL6/J mice and blood samples were taken by retro-orbital bleeding from anesthetized animals. The final time point was taken from the axilla of anesthetized animals. Radioactivity was measured in plasma sample, and was calculated as total plasma cpm, assuming plasma volume as 4.2% of the body weight.
# Based on the specific activity of the radiolabelled materials, approximately […] of the injected dosage was present in the blood after 4 or 5 hours following the injection. […] It should be noted that the major lipoprotein in 57BL6/J mice is HDL.
# Thus, intraperitoneal administration allows for the peptide or human apoA-I to be released into plasma gradually. Intraperitoneal administration of the peptide is therefore feasible
# [5] = tested on: diet-induced lipid accumulation in C57 BL6/J mice; assay: IP administration of peptide for sixteen weeks to high fat diet administered C57BL 6/J mice (aortal histology, total cholesterol, mortality); type: in vivo
# Description: C57BL mice were administered a high cholesterol diet (modified Thomas Hartcroft) and were divided into two groups. Group I received intraperitoneal administration of saline each day for 16 weeks. Group II received intraperitoneal administration of the peptide solution (μg/mice/day) for 16 weeks. At the end of the experiment, mice were sacrificed and aortas were harvested, cross-sectioned and stained with Oil Red O. FIGS. 1A-1F show the cross sections of the aortas from animals 1 and 2.
# A dosage of peptide to be injected was selected based on the in vivo studies conducted using 18A to inhibit the LPS-induced toxicity in mice (Levine, et al., PNAS, 1993, 90:12040-12044). In these experiments, […] of the peptide 18A was used per mouse to inhibit endotoxin-induced death of mice. Because of the solubility of the peptide 37pA, and since it was desirable to maintain the same volume used by Levine et al, […] of peptide per mouse per day was injected.
# Peptide 18A-Pro-18A dissolved in sterile saline was administered IP everyday for sixteen weeks 11 animals on high fat diet. Control animals on high fat diet were administered saline for sixteen weeks. At the end of sixteen weeks, animals were sacrificed and histology of hearts were done. The mortality in both the groups were similar (only three in each groups) indicating no toxicity due to peptide 18A-Pro-18A administration.
# [6] = Bilayer stabilization (transition temperature of DOPE); type: physicochemical
# Excerpt: (§1) 2. The amphipathic helical peptide 18A-Pro-18A is the closest mimic of human apoA-I as a bilayer stabilizer. Bilayer stabilizers increase the transition temperature of DOPE whereas destabilizing molecules decrease the transition temperature. Such a destabilization can cause the inverted phase lipids (or hexagonal phase). Formation of this by the lytic peptide can be inhibited by human apoA-I or class A peptides.
# [7] = Stability of peptide lipid complex; type: physicochemical; settings: compared to 18A-Ala-18A and 18A-18A
# Excerpt: 1. The tandem repeating class A amphipathic helix linked by a proline forms an optimal arrangement for lipid association.
# as §1
# [8] = tested on: HIV-I Gp4l-induced cell fusion; assay: HIV-I Gp41-induced cell fusion; type: cell-based
# neutrophil activation = assay: Neutrophil activation; type: cell-based
# [9] = BSA-induced lysis of fatty acid-containing vesicles
# [10] = tested on: human placental lactogen synthesis; assay: Stimulation of human placental lactogen synthesis; type: cell-based
# cholesterol-loaded cells = assay: Efflux of phospholipid and cellular cholesterol from cholesterol-loaded cells; type: cell-based
# Excerpt: 4) The amphipathic helical peptide 18A-Pro-18A mimics HDL in clearing cellular cholesterol. The removal of cholesterol from peripheral cells by HDL is thought to initiate the process of reverse cholesterol transport. HDL is capable of stimulating the net release of cholesterol from cells. This process thus inhibits the formation of foam cells, the hallmark of atherosclerosis.
# [11] = target: T1, HDL receptor on rat adrenal cells (Rattus norvegicus, UniProt P97943); assay: Competition with HDL for binding to rat adrenal cells
# T1 construct: endogenous in cells; host or cells: rat adrenal cells
# T1 sequence (P97943 1-509): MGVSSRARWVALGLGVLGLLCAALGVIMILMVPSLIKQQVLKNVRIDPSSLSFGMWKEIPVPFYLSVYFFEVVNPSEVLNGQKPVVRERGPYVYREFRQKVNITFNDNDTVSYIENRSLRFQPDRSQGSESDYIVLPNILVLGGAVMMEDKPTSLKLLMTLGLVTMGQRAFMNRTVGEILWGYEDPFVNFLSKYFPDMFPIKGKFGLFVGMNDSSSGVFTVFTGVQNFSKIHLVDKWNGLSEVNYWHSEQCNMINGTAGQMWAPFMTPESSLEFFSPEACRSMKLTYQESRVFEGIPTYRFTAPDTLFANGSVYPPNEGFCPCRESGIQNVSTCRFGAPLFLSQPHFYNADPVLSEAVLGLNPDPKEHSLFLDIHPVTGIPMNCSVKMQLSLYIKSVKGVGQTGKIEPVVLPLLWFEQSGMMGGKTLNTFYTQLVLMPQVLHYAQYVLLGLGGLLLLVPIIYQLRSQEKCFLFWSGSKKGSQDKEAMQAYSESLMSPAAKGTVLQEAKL
# Excerpt: 5) The amphipathic helical peptide 18A-Pro-18A competes with HDL for binding to rat adrenal cells. Recently, it has been shown that HDL delivers cholesterol to the cells through class B scavenger receptor SRBI. This receptor binds HDL with high affinity and is primarily expressed in the liver and in nonplacental steroidogenic tissues.
# [12] = Turnover (clearance curves) in rats; settings: 18A-Pro-18A versus human apo A-I
# [13] = rat, in vivo
substance,measurement,setting,value
"Ac-DWLKAFYDKVFEKFKEFF-NH2 [5F, Ac-Asp-Trp-Leu-Lys-Ala-Phe-Tyr-Asp-Lys-Val-Phe-Glu-Lys-Phe-Lys-Glu-Phe-Phe-NH2]",aortal lesions,[1]; listed as SEQ No. 2,effective
same,aortal lesions,[1]; listed as modified 18A,virtually no lesion
same,VLDL-density particles in cholesterol profile compared to control animals,"[1]; after sixteen weeks, IP, normal diet",decreased considerably
same,Total cholesterol,"[2]; high fat diet, 50 μg/animal/day for 16 weeks, individual mice (Table III)",156 and 161 and 182
same,levels of plasma cholesterol,[2]; peptide injections 50 μg/animal/day for 16 weeks,markedly decreases
DEPDWLKAFYDKVAEKLKEAFPDWLKAFYDKVAEKLKEAF [Asp-Glu-Pro-18A-Pro-18A],amount of peptide in the plasma,[3],approximately 20 μg/ml
"DWLKAFYDKVAEKLKEAFPDWLKAFYDKVAEKLKEAF [18A-Pro-18A, class A amphipathic helical peptide 18A as head-to-tail dimer with a proline incorporated]",amount of the injected dosage present in the blood,[4],approximately 1 mg
same,Total plasma cpm as a percent of the injected cpm,[4],25.5%
same,presence of the radiolabel in isolated lipoprotein fractions (FPLC),[4],exclusively in HDL
same,form of radioactivity in the plasma (TCA precipitation and FPLC analysis),[4],present in the intact peptide/protein
same,antibody to the peptide,[5]; IP every day for sixteen weeks,no antibody was detected
same,toxicity (mortality compared with saline group),"[5]; IP every day for sixteen weeks, high fat diet",no toxicity
same,foam cells in cross sections from the aorta,"[5]; IP over 16 weeks, high fat diet, FIG. 1C",no foam cells can be seen
same,lipid accumulation in aortal cross sections compared to the control group,"[5]; IP sixteen weeks, high fat diet, Oil Red O",less lipid accumulation
same,Total cholesterol,"[5]; mice on high fat diet and peptide administered, individual mice (Table I)",156 mg/dL and 161 mg/dL and 182 mg/dL
same,bilayer stabilizing property,[6],most bilayer stabilizing property
same,stability of complex,[7],most stable complex
same,effectiveness in HIV-I Gp4l-induced cell fusion,[8],most effective peptide
same,effectiveness in neutrophil activation,neutrophil activation,most effective peptide
same,effectiveness in BSA-induced lysis of fatty acid-containing vesicles,[9],most effective peptide
same,effectiveness in stimulating human placental lactogen synthesis,[10],most effective peptide
same,efflux of phospholipid and cellular cholesterol,cholesterol-loaded cells,effectively effluxes
same,competition with HDL for binding,[11],competes
same,clearance curves,[12],virtually superimposable
"human apo A-I: human apolipoprotein A-I, protein component of HDL, used as comparator",amount of the injected dosage present in the blood,[4],approximately 1 mg
same,Total plasma cpm as a percent of the injected cpm,[4],32%
same,presence of the radiolabel in isolated lipoprotein fractions (FPLC),[4],exclusively in HDL
same,form of radioactivity in the plasma (TCA precipitation and FPLC analysis),[4],present in the intact peptide/protein
same,clearance curves,[13],virtually superimposable

# Reference: patent US6156727A, “Anti-atherosclerotic peptides and a transgenic mouse model of antherosclerosis” (UAB Research Foundation, priority 1997, dated 2000)
